One substance from paper PMC6172241, “A multisubstrate reductase from Plantago major: structure-function in the short chain reductase superfamily” (Scientific Reports, 2018) can be followed below.

For the assay, the target named is PmMOR (Plantago major multisubstrate oxido-reductase) (Plantago major). The assay can be described thus: SEC; Superdex 200, 20 mM Tris pH 8.0, 100 mM NaCl, 1 mM TCEP; oligomeric state judged from the elution volume.

The substance “PmMOR (Plantago major multisubstrate oxido-reductase) (enzyme)” gave a stoichiometry N of 2.
